Assay results: patent US20230226096A1 (Orna Therapeutics, Inc., priority 2020, published 2023)

System: HEK293 cells
Assay type: cell-based, human
Details: luminescence from secreted Gluc in supernatant 24 hours after transfection of HEK293 cells; circular RNA encoding Gluc with the named IRES (UTR truncated to 675 nt)

Molecule	Expression
Hepatovirus D (nucleic acid, Hepatovirus D) DNA: CTTTGGATGCCCATAGTGCGGGGGTATAAATACCGCACTCCCTTTAGCTGTTCCGAGGGTATCGGAACCTATATGTTTGTTTTCTGTCTGTCTGTCAGCTTTATGTGTGCTCGTCCCCTTTAGGGCACTCATTTCAGCTTGCTTTCATTCTTTTCTTCCCCGGTTCTCACCTTACCGGAGGCACTGGCCGTTGCGCCCGGCGGGGTCAACCTAGTGATTAGCACTAGGCTGTAGGTGTCTAAAGTGGTGACATTAAGACTTGGTAACTGATTTCAGCACTGTTAACTGATGTTGGGGATGACTTGATTGATCTTCTGGAAGGGGTAGGCTACGGGTGAAACCCCTTATCTTAATACCACTATGTAGAGATAGATTCAGTAGGTTAAGGGCAGTGGATAAGGTTGAGTTCATTTTGGACAATAAACCTTCAACACTGGTGGACCCAATCTCACTGACCAGATGCTTTCTTGACTGATCCTTCAGAGGGGTGATTCTTCTGAATAGGTTGCCTTGACACTGATGCCTGAGACCCATTGGGTCGGGCCTTAAATCATGGAACTCCACTGGACTTTCATGGCCTAGCTTCTGCCTTAGACAGACTCTGGGGCCCCACGACCCTCTGGGCCCTTCGGGGTACTCAGGGGCATTTAGGTTTTTCCACAATTAAAAGAGTTA	1.47E+06
Hepatovirus H2 (nucleic acid, listed as Hepatovirus sp.) DNA: GTCATGTTTCTCTTTAAGAACACTCAATTTTGGCCATAAGTGAGACTCTTGTCGAACCTTTCATGTCAGGACCATGTTAGGGCCATTATCCTTTTCCCTGGGGCATTCTTCTTGCCCCTGTTTCATCTTTCTATCATCTTTCTTCCGGGCTCTCACAATGCCAATGGAGCGACCGATGCGCACGTCGGGGTTAACCCATGGATTAGCCATGGGCTGTAGCTGCTAAAAGTTGTGACTCCTGAAGCATACTATCAATGGTAGTAGATGTAACTGAAACACTGAAGCTTCTCTGATCTTGAAAGAAGGGTAGGCTACGGGTGAAACCCTTCAGGTTAATACTCATATTGAGAGATACCTTTGGTAGGTTAACGTTGGCGGATAATGTTGAGTTTAACGACAATAAACATTCAACGCCTGTGGGCGAACCTCACCAATTTCATGCTTTGAAGTGAATGTGCGTAGGGTCTCTATCGGAGATGCTATGTGGATGGTGCCCTCCCTGGAAACAGGTTGTAGGGGTACTCAGGTGCACTTAGGTTTCCACATTTTAAAGATTTTTC	1.08E+05
Hepatovirus I (nucleic acid, Hepatovirus I) DNA: GGCTGCCTGTGTCTCAGGGGTAAGTACTGGGGCCGCGTTGACCGTGCGGTACGGTTATGCTTTTAGATTAGGATGTCCGTCTGTCCGGCACTCTCTTTTGCTTAAAATGGCCTTAAATCCATGGGAGGCGTAACCATGGGCCCTTTGTTACCTAGACATGATTGCATTGGGGGCCGTCCTTGGGGCTTAGGCCCCAGCCATTTCTCTTGACTCGTCTAAGAGTTTACTTCATCCTTTTCTTTACTTTATTTTCCAGGCTCTCAGCATGCCGACGGCTCTGACCACTGCGCCCGGTGGGGTTAACTGCATGATTAGCATGCAGCTGTAGGAGTTAAAAGTGCTGACAGGCCAATTCTGACGTAAGTCCACTCTATATTAACTTGATCAAGTAAGGTTGATTGATCTTTGTGAGAGGGTAGGCTACGGGTGAAACCCTCTAGGTTAATACTCATATTGAGAGATACCTCCAGAAGGTGAAGGTTGGCGGATATTGGTGAGTTCTTTTAGGACAAAAACCTTTCAACGCCTGTGGGCCCACCTCACTGGCACAATGCTTTCATCCCCAATTGTGATGGGTAGTTTGGACTGAAATCAGGAGTAACCTGCCCTACGAGTTTAGGGGTAGTTCAGGGGTATTTAGGCTTCCACATTTGATAGAGTTTATGAGAGTGAGCC	8.79E+05
Hepatovirus C (nucleic acid, Hepatovirus C) DNA: TTCAAAAGCCCCAGCGGGGTTTCATTACCCCGCTGTGGCTTTTGGACTTCCCTAGGATGGGGAAGTAAATTACCATCCTCGCGTTTGCCGTGCGTTAACGGCTACTTTTCTTCTAGCTGTAGAAGTAAAATTCAGCATGTTTTATGTTTGTTTGTCTTGTTTGTTATATACATTTTTACACTCCTACAAATGCACATGAAGAACAGTTTGTAGAGATTAACAAACGCTTAGCTGAACCTAGGTGGTGAATCTAGTAGTAAGATAAGTAGAGGAAGCTATACCTTAAGTTGGTTGGGCCCTCGTGTTTGCTCTATAAACAAAACCAAGTGAGTAGAGTGGATGAACAGTACTAAATCCCTGAGTACAGGGAACCTCACAGGTGTGATACACTTATGTCTATGTGACCTGGTTGGAGGTTGGGCGTGCCCTATGATACTGGAGTGGGAGATCTTTTGGGGAACCCACGTTTTCACACTGCCTGATAGGGTCTTGCCGAGAGACTCACTTGTTTCGGCTGTACTTGTAAC	5.08E+05
Fipivirus A (nucleic acid, Fipivirus A) DNA: TGCGGGTAAACTCCCGCATGTGTGAATGAGGCGATGTCCCAGGAACTAACTGCCGATCCTGGTTTTAACTACGATCCGTATTTGTTACTAATGCGATATCCCCCCATTGTTTGCCTCCATGTTGTTTTCAACGCTTTTGGCCTTGAGTGTTATCAAGTGTTTTAGCGACATAGTGGGAAGCTACGGCTGCGTCCCCATTTTTGAGTGGCGACCCAGTTTTAGTGGCCACTCTGTCCCTGAACTGCGCTATAATGTGAATTTATGTTCACAAAAACGGACTGATGTAACTGTTAATGACTAAGGAATAGTACCTCACTGAAGTATCAAGACCCCGTTCGAGCGGTGTACATATATGGATGGAAACCTTGTCTGAGTCATCTCGAATACTAATCAATGAGGGATGTCGAGTAAGCATATCATGAACCACATAGAATAGTGGGGTTTCGGGGTTAGAGGCTCTCTGCAGCAATGTATCTCTAACACCATGGCCGAAATGAGAGATAGAGACCACGATGTTTGTGTGTAAGTAATGATGTGTGGAAAGAAAATTCTGAATGTTGGTATGATATCAGTCTAAGGGGAGTGGCTCACCTAAGAGCTACCCAAACATTTCACAGCAGACAACATAACGTACTGAGAGTAGTTGGAAGGTTCCAGAAATCAGT	2.69E+05
Fipivirus C (nucleic acid, Fipivirus C) DNA: CGCGGTTAAACCCGCGCAACCTTCTTTCAGCCGCGTCTGAGTAGCGCGGTTAGTCCTGATACACAGTTTCCTGTTGGGTACTGTGTCTTCGGGTGAATGCTCTTGTGTGAATGTTTTAGGCTGTTTAAGGGAAGCGTTTCCCCGTGCGCTGTGAGGGTTTCTCACGCTCTTTCGGGGTGCAGTCTCTTCTGTTGTTCATTAAGATGTATGGATGCACTGTTGTGAAGGATTTGTGAACTGGGGATCGACACCCCGTGAGGGGTGCCCCAGTGTCCATAGGAGTTTGCTGGAGAGGTGTGTTGCTGTAGTGACTATCCGTGACCTGGCATTCTAAGGTGTTGACCCCAACCTGTGAGGGTCTGGATCGCAGTGTTGAAGTGCTTTGGAGGGTTCAATGGGGTTTCTGTAGTGGATATTATGTGCTTGACGACTACTGGTACGAGTGTATTGGGGGTCTACATGTGTGA	1.09E+05
RhPV (nucleic acid, Rhopalosiphum padi virus) DNA: GATAAAAGAACCTATAATCCCTTCGCACACCGCGTCACACCGCGCTATATGCTGCTCATTAGGAATTACGGCTCCTTTTTTGTGGATACAATCTCTTGTATACGATATACTTATTGTTAATTTCATTGACCTTTACGCAATCCTGCGTAAATGCTGGTATAGGGTGTACTTCGGATTTCCGAGCCTATATTGGTTTTGAAAGGACCTTTAAGTCCCTACTATACTACATTGTACTAGCGTAGGCCACGTAGGCCCGTAAGATATTATAACTATTTTATTATATTTTATTCACCCCCCACATTAATCCCAGTTAAAGCTTTATAACTATAAGTAAGCCGTGCCGAAACGTTAATCGGTCGCTAGTTGCGTAACAACTGTTAGTTTAATTTTCCAAAATTTATTTTTCACAATTTTTAGTTAAGATTTTAGCTTGCCTTAAGCAGTCTTTATATCTTCTGTATATTATTTTAAAGTTTATAGGAGCAAAGTTCGCTTTACTCGCAATAGCTATTTTATTTATTTTAGGAATATTATCACCTCGTAATTATTTAATTATAACATTAGCTTTATCTATTTATA	1.10E+05
Fipivirus E (nucleic acid, Fipivirus E) DNA: CTCTTCCGATCTTGGGGGTTCGCCCCCATGTCTCATTTCAACTAGCCGTGTGTCTAGTTAACGCACCGCCTCACCCTGGTCGTTATCGGGTCGGTTCTTGCGACCGTTAGATCGTGAGCGTTTCTGAGGATCAGTTCGTATAAGTTCTCCGGTGTGGCGACCGTAAAATCGTCACGTCCCATGCAATAGATGACGTTAAACTCGTTTGCCAGTTACATAAAGGAATGTTGTTACTTTTAAATTGTCTGTTACATTTAACATCTTGCCAGTATGATGCTACTGTACACTACGGGTGTAGGAACCTTGTAGTGTGACGTATCACTCATATGTGGATGGGTGCTCCAGACCTTTATGGAAGCTCTCAGTTAGTAGTGATCCTTGACTTCATTGAGCCCTGGTAACAGTGGAAGTCAAGATGTATATGTTGCTCAACACACTTCGGTGCTACGAAGCTGTTTGTGGAAGTACTGGCGAGGTTCATTCTGAATCATATGTTTGTCACATAGTCAGGGAGTGCCGTCGCTTACGACGGACCCTTTTTCTTTATAATTACAAATCTGTGTCTCAAGTGTTGTTGGCTGGTTTTCTTCTTCTGTTTTCATTGTTCATATATATACGTCAGAGTGAAAGACTCGGTATATACAAAACTGATCCAGA	1.10E+05
Aquamavirus (nucleic acid, listed as Aquamavirus sp.) DNA: TTCAAAGGTGGCGGGAGAGTTGGCCTCACGCTGTTTAGCGTGAGAGCTGGCTCTCCTGCCCCTTCCCCTGAGCCGGGGATCTTGGCTCATTCCCCTCTTTTCTATCCTCCCTCATTGGACTTTACGGATGACCCGGCATAAACTTGACAACCGATGTTGGATTTCCCTTGTGGCTGTGATGGAGGACATACCCTCGGGTGTAGTTGTGTGCGTGTCGCTCTGCGACTCGAGCTTCAAAGTGGTGCTGAAATATTGCAAGCGTCGTTGCTCGATTAACGGAGTGGTACAATCCTATGAACCCAAGTGCATTCATGCGAAAGCCCCGGAGGGGTGAGTAGCATGGACTCGAATCAGAAGAGCTGGAGCTCGCTTGGTACGGCACGTAGCATTGCTTTGCCTAAAGACCAAGGGGGTATGGCTATAGGTGGGGGCCTATAGCTTGTCCAGTGCTGGTTGACAGACTCGTGCTACGCGTCTGGTTCGAGTATAAGTAGCTGCAACTCACT	4.51E+06
